Data as given in paper PMC9753473 (The EMBO Journal, 2022).

T1: Chlamydomonas reinhardtii IFT81/74(128‐C) heterodimer (Chlamydomonas reinhardtii, UniProt Q68RJ5 1-683; Q6RCE1 128-641)
T1 sequence (looked up) 1: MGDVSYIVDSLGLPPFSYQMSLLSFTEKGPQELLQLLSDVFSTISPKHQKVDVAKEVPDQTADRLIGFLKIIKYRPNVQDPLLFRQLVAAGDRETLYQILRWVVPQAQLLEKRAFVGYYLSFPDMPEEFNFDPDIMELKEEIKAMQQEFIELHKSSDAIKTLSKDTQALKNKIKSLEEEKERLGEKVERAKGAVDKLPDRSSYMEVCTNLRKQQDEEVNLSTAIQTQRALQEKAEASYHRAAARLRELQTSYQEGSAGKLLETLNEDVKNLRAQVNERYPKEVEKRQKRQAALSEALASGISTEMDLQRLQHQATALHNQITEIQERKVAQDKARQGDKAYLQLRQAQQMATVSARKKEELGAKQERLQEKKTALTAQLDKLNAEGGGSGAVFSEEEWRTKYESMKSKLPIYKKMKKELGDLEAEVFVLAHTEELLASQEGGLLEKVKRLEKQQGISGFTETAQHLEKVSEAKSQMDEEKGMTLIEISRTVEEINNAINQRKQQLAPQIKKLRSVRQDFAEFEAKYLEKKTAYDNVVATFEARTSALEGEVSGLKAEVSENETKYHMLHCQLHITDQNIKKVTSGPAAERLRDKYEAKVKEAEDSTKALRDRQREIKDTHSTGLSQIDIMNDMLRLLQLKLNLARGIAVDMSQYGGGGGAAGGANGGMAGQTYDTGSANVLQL
T1 sequence (looked up) 2: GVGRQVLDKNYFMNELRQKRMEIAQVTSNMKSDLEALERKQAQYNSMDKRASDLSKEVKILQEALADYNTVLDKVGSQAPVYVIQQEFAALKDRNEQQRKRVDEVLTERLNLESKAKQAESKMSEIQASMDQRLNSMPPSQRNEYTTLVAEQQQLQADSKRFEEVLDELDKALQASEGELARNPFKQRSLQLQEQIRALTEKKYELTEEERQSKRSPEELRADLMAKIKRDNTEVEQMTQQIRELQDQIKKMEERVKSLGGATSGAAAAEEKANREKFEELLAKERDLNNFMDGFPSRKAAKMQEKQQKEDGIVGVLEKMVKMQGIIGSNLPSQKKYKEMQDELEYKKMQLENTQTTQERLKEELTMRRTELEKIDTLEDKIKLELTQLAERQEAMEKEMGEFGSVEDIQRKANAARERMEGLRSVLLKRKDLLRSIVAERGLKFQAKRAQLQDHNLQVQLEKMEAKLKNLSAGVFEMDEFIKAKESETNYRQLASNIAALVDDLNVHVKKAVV

T2: Chlamydomonas reinhardtii IFT81 (Chlamydomonas reinhardtii, UniProt Q68RJ5 1-683)
T2 sequence (looked up): T1 sequence (looked up) 1

T3: CrIFT172(1–968) (Chlamydomonas reinhardtii, UniProt Q5DM57 1-968)
T3 sequence (looked up): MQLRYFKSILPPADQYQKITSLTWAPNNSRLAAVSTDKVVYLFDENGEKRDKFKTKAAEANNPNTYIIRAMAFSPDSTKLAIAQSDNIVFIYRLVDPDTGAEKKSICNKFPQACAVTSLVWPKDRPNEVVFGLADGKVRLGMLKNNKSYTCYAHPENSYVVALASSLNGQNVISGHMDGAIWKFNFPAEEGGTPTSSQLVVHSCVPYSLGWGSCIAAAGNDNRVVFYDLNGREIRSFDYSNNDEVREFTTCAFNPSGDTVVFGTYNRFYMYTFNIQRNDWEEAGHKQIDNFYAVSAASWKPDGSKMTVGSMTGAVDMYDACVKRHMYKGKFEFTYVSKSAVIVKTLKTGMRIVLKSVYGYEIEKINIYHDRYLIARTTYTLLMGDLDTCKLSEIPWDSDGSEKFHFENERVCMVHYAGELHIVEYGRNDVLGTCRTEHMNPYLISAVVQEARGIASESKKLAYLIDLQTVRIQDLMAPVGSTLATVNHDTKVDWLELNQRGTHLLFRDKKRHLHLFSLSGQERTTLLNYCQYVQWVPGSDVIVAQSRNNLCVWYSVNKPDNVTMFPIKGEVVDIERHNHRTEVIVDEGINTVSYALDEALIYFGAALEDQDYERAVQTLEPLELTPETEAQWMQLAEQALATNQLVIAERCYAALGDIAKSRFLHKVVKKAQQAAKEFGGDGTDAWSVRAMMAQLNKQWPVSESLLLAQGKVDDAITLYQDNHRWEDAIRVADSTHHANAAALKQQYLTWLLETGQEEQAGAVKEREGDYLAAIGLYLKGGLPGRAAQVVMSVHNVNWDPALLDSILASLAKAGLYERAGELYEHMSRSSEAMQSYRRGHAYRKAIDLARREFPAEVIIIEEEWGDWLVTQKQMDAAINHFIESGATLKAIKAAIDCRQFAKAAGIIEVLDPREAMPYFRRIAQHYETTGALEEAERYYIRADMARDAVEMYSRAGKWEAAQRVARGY

B1: Chlamydomonas reinhardtii IFT27 (natural protein)
chain: MVKKEVKPIDITATLRCKVAVVGEATVGKSALISMFTSKGSKFLKDYAMTSGVEVVVAPVTIPDTTVSVELFLLDTAGSDLYKEQISQYWNGVYYAILVFDVSSMESFESCKAWFELLKSARPDRERPLRAVLVANKTDLPPQRHQVRLDMAQDWATTNTLDFFDVSANPPGKDADAPFLSIATTFYRNYEDKVAAFQDACRNY
B2: Chlamydomonas reinhardtii IFT46(188–319) (domain or fragment, UniProt A2T2X4 188-319, looked up)
chain: QLRQLSKEAPGAKADMVGRLEHTDENKAKKIQQWIASINDIHKAKPAATVNYSKRMPEIEALMQEWPPEVETFLKTMHMPSGDVELDIKTYARLVCTLLDIPVYDDPVESLHVLFTLYLEFKNNPIFRQHME
B3: Chlamydomonas reinhardtii IFT25(1–136) (domain or fragment, UniProt B8LIX8 1-136, looked up)
chain: MKDYAREENGGLVVMASCSDERFPPENMLDGKDNTFWVTTGMFPQEFVLRLESCIRVSKITTLSLNVRKLAVEKCDQDKPDQFEKVFEVELANRGDRLQTEVHQVNIRAKYLKFILLQGHGEFATVNRVSVVGGDD
B4: Chlamydomonas reinhardtii IFT74(128‐C) (domain or fragment, UniProt Q6RCE1 128-641, looked up)
chain: T1 sequence (looked up) 2
B5: GST‐tagged CrIFT57(1–234) (domain or fragment, Chlamydomonas reinhardtii, UniProt Q2XQY7 1-234, looked up)
chain: MSSKRGGRSSLAKAPEEAVNGEAFAPEASPPPPGDDGDAGGEDGGAPAPPPPPATKGGPVAVGRSLEIQTTPDVCMEMLADKLKLLNYEADFCRKKKPYRKPLSRLYFAVPLANSSEQFFYFTSLATWLLGLAGVELPAPKEFDDPNLTCQNILGAVKKLGFAPPSYHPTKLTVGNGKEVVGVLDGLVDFVLERRHHKYSRPAYGNDGQPEEGVQLDDEAEAAAMEGADELAMP

How the values were obtained:
[1] = target: T1, Chlamydomonas reinhardtii …; experiment: cross-linking
[2] = target: T2, Chlamydomonas reinhardtii IFT81; experiment: cross-linking
[3] = target: B4; experiment: cross-linking
CrIFT172(1–968) = target: T3, CrIFT172(1–968); experiment: pull-down

Binder	binding result [1]	binding result [2]	other results
B1	binds		
B2		binds	binding result [3]: binds
B3	binds		
B4		binds	
B5			binding result (CrIFT172(1–968)): binds
